Experiment [1] concerns the target human MASP-1 (protein in human serum) (human).
The target of experiment [2] is human MASP-2 (protein in human serum or plasma) (human).

human MASP-1 (protein in human serum) (human), sequence (chain, as listed by the source): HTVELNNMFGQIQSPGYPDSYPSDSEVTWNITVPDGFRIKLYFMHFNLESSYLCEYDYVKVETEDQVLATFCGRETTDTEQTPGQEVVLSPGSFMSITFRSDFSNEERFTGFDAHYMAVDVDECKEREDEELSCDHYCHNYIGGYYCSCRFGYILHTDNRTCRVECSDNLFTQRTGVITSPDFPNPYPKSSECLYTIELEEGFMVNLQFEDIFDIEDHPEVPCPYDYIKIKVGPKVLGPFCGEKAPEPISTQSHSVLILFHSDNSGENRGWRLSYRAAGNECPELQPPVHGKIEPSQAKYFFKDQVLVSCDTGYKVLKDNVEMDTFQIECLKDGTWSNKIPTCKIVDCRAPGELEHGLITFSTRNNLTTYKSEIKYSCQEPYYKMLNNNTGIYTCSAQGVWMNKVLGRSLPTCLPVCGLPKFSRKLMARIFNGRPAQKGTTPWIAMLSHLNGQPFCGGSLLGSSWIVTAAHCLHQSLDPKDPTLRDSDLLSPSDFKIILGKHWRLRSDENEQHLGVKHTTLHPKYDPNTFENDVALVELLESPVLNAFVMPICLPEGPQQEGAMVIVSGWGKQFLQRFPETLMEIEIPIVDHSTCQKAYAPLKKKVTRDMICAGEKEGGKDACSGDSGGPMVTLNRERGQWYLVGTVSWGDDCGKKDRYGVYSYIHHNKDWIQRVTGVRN

Take “SGMI-1Fc (mature polypeptide fusion comprising SGMI-1, linker #1 and human IgG1-Fc) (Fc fusion)”: the C3b deposition from 1% normal human serum on mannan-coated wells (IC50) in experiment [1] came out at 27 nM.

Regarding “SGMI-2Fc (mature polypeptide fusion comprising SGMI-2, linker #1 and human IgG1-Fc) (Fc fusion)”, the C3b deposition from 1% normal human serum on mannan-coated wells (IC50) in experiment [2] was 300 nM.

Values taken from US20220259325A1.
